Consider five molecules from paper PMC11284795, “Development of Zalfermin, a Long-Acting Proteolytically Stabilized FGF21 Analog” (Journal of Medicinal Chemistry, 2024).

The target in data set [1] is T1, human beta-klotho (KLB) on HEK293 cells (human, UniProt Q86Z14 1-1044). As to the kind of experiment: cell-based or functional assay.
In data set [2] the target is T2, FGFR1c/KLB: ectodomain of human FGFR1c fused to Fc, with human beta-klotho (human, UniProt P11362 22-376; Q86Z14 53-996).
T2 construct: ectodomain of human fibroblast growth factor receptor 1, c-isoform (FGFR1c); human beta-klotho (KLB, printed there as BKL) protein; FGFR-Fc on Protein A acceptor beads, KLB added in solution; the bought KLB is, as I recall, the extracellular domain; also called FGF-receptor complex; source: bought: R&D Systems (both proteins)
As to the kind of experiment: AlphaScreen or HTRF; competition: biotinylated FGF21 on streptavidin donor beads, ectodomain of human FGFR1c, FGFR2c, FGFR3c or FGFR4 fused to Fc on Protein A acceptor beads, human KLB protein added; signal inhibited by increasing doses of FGF21 analog; 0.1% ovalbumin; indirect measure of binding affinity, reported as IC50. Conditions: both partners purified. On the technique in general: Alpha assays give light when donor and acceptor beads are brought close together.

In data set [3] the target is T2, FGFR1c/KLB: ectodomain of human FGFR1c …. In words: cell-based or functional assay.
The target in data set [4] is FGFR3c/KLB: ectodomain of human FGFR3c fused to Fc, with human beta-klotho (human, UniProt P22607 23-375; Q86Z14 53-996). As to the kind of experiment: cell-based or functional assay.
The target in data set [5] is T1, human beta-klotho (KLB) on HEK293 cells. In words: cell-based or functional assay. This is another data set of the same source.
The target of data set [6] is T3, mouse beta-klotho (KLB) on HEK293 cells (mouse, UniProt Q99N32 1-1043).
T3 sequence (looked up): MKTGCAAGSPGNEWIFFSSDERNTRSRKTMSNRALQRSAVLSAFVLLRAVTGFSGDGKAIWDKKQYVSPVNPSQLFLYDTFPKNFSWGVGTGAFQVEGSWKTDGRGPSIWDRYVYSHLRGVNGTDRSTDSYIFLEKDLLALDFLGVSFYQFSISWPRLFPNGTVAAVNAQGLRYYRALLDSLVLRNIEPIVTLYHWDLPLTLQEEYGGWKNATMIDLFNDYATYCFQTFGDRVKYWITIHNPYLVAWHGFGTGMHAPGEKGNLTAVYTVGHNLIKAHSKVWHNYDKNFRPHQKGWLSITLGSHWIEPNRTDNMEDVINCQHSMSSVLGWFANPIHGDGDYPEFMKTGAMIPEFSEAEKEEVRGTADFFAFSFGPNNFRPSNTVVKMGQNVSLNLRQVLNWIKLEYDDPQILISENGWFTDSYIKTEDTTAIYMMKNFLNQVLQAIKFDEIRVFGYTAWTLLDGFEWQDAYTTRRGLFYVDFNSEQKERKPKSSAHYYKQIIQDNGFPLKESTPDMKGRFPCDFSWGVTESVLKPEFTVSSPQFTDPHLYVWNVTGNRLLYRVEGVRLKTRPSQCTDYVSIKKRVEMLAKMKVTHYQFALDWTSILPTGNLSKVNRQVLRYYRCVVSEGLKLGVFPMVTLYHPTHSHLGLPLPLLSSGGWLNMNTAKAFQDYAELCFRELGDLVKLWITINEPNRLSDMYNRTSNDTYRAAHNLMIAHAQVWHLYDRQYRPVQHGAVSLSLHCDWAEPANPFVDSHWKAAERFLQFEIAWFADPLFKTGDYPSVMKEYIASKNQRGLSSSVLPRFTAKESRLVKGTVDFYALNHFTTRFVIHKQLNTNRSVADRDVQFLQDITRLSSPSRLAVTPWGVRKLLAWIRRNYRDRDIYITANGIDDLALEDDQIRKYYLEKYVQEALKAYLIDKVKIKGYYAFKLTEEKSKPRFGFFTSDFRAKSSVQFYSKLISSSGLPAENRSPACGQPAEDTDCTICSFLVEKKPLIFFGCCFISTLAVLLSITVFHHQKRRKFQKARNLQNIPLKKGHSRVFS
In words: cell-based or functional assay.

The target in data set [7] is cynomolgus monkey beta-klotho (KLB) on HEK293 cells (cynomolgus monkey). As to the kind of experiment: cell-based or functional assay.
The target in data set [8] is BSA (albumin of the FAP incubations) (bovine, UniProt P02769 25-607). In words: cell-based or functional assay.
Data set [9] deals with human serum albumin (HSA) (human, UniProt P02768 25-609). As to the kind of experiment: cell-based or functional assay.
Data set [10] concerns the molecule itself. As to the kind of experiment: AF4-MALS; 15 at 49-88 mg/mL in 10 mM phosphate, pH 8.2 with 2% glycerol, 1 uL injected; running buffer 10 mM phosphate pH 8.2 with 10 mM NaCl; analysed again after dilution to 5 mg/mL.

Sequence of BSA (albumin of the FAP incubations) (P02769 25-607): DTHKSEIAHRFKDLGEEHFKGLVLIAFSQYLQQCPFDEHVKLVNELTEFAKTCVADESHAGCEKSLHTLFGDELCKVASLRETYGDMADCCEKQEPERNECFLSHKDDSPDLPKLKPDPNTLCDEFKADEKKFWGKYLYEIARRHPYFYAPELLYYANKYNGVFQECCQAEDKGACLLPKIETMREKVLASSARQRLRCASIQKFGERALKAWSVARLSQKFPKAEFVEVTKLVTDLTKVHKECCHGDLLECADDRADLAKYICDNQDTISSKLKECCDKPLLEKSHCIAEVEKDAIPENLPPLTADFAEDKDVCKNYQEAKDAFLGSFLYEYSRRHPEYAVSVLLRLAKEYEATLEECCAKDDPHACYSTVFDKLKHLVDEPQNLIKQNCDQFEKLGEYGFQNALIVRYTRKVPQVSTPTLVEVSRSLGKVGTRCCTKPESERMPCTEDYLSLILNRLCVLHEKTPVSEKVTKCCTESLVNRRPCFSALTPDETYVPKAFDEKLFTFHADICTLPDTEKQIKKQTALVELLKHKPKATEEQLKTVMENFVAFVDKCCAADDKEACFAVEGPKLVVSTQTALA

B1: FGF21 analog 17 (-1A, 121Q, 168L, 180C, des181; C18 fatty diacid on 180C) (ligand, human)
chain: AHPIPDSSPLLQFGGQVRQRYLYTDDAQQTEAHLEIREDGTVGGAADQSPESLLQLKALKPGVIQILGVKTSRFLCQRPDGALYGSLHFDPEACSFRELLLEDGYNVYQSEAHGLPLHLPGQKSPHRDPAPRGPARFLPLPGLPPALPEPPGILAPQPPDVGSSDPLSLVGPSQGRSPSYC
modifications: C18 diacid gGlu-OEG-OEG-C2DA-Ac side chain on Cys180
notes: single amino acid N-terminal extension (-1A), giving the N-terminus AHPIP; human FGF21, mature hormone without its last residue Ser181; numbers count on: the mature protein; source: E. coli BL21 (DE3)-derived strain, inclusion bodies, purified; side chain conjugated to the Cys, purified by anion exchange (MonoQ)
For B1, the “potency (EC50) of ERK phosphorylation in HEK293 cells transfected with human KLB, without HSA” value in data set [1] stood at 3.9 nM. Besides, the pIC50 (in general, the negative decadic logarithm of the IC50, by convention in mol/L) in data set [2] was 5.79 ± 0.05.

B2: Met-FGF21 (1) (ligand, human)
chain: MHPIPDSSPLLQFGGQVRQRYLYTDDAQQTEAHLEIREDGTVGGAADQSPESLLQLKALKPGVIQILGVKTSRFLCQRPDGALYGSLHFDPEACSFRELLLEDGYNVYQSEAHGLPLHLPGNKSPHRDPAPRGPARFLPLPGLPPALPEPPGILAPQPPDVGSSDPLSMVGPSQGRSPSYAS
notes: single amino acid N-terminal extension (-1M), giving the N-terminus MHPIP; human FGF21, mature 181-residue hormone (N-terminus HPIP, C-terminus Ser181); numbers count on: the mature protein; also called human FGF21 with N-terminal Met extension; -1M; source: E. coli BL21 (DE3)-derived strain, inclusion bodies, purified (Q Sepharose FF, Phenyl FF, Source 30Q where needed)
On to B2, for which the “potency (EC50) of ERK phosphorylation in HEK293 cells transfected with human KLB, without HSA” value in [1] was found to be 1.6 nM. The “potency EC50 of ERK phosphorylation in Ba/F3 cells overexpressing human KLB and FGFR1c, 0% HSA” value in data set [3] was 3.7 nM. Also, the “potency EC50 of ERK phosphorylation in Ba/F3 cells overexpressing human KLB and FGFR3c (chimera with the kinase domain of FGFR1c), 0% HSA” value in [4] was found to be 10.8 nM. Further, the “mean EC50 of ERK phosphorylation in HEK293 cells overexpressing human KLB (species qualification)” value in [5] was 3 nM. In addition, the “mean EC50 of ERK phosphorylation in HEK293 cells overexpressing mouse KLB” value in [6] came out at 0.3 nM. In [7], the “mean EC50 of ERK phosphorylation in HEK293 cells overexpressing cynomolgus monkey KLB” value stood at 1.8 nM. In data set [2], the negative-log IC50 (pIC50) is 6.56 ± 0.89.

B3: stabilized backbone (4): -1A, 121Q, 168L FGF21 (ligand, human)
chain: AHPIPDSSPLLQFGGQVRQRYLYTDDAQQTEAHLEIREDGTVGGAADQSPESLLQLKALKPGVIQILGVKTSRFLCQRPDGALYGSLHFDPEACSFRELLLEDGYNVYQSEAHGLPLHLPGQKSPHRDPAPRGPARFLPLPGLPPALPEPPGILAPQPPDVGSSDPLSLVGPSQGRSPSYAS
notes: single amino acid N-terminal extension (-1A), giving the N-terminus AHPIP; human FGF21, mature 181-residue hormone; numbers count on: the mature protein; also called stabilized backbone of 15; source: E. coli BL21 (DE3)-derived strain, inclusion bodies, purified (Q Sepharose FF, Phenyl FF, Source 30Q where needed)
Turning to B3, the “potency (EC50) of ERK phosphorylation in HEK293 cells transfected with human KLB, without HSA (with 0.1, 1.0 and 1.5% HSA: 1.4, 0.9 and 1.5 nM, Table 3)” value in [1] was 2 nM. This molecule also had a pIC50 in data set [2] of 6.18 ± 0.1.

B4: zalfermin (NNC0194-0499, 15) (ligand, human)
chain: AHPIPDSSPLLQFGGQVRQRYLYTDDAQQTEAHLEIREDGTVGGAADQSPESLLQLKALKPGVIQILGVKTSRFLCQRPDGALYGSLHFDPEACSFRELLLEDGYNVYQSEAHGLPLHLPGQKSPHRDPAPRGPARFLPLPGLPPALPEPPGILAPQPPDVGSSDPLSLVGPSQGRSPSYCS
modifications: C18 diacid gGlu-OEG-OEG-C2DA-Ac side chain on Cys180
notes: single amino acid N-terminal extension (-1Ala), giving the N-terminus AHPIP; human FGF21, mature 181-residue hormone; numbers count on: the mature protein; 20.3 kDa; also called FGF21 analog 15; source: E. coli BL21 (DE3)-derived strain, inclusion bodies, purified; side chain conjugated to the Cys, purified by anion exchange (MonoQ)
Regarding B4, the “t1/2 of 15 toward degradation by FAP in vitro in the presence of 0.1% albumin (27–57 min for 1, 15 and 5 without albumin)” value in [8] came to 7.47 h. The “potency (EC50) of ERK phosphorylation in HEK293 cells transfected with human KLB, without HSA” value in data set [1] was determined as 3.3 nM. Besides, the “potency (EC50) of ERK phosphorylation in HEK293/human KLB cells with 0.1, 1.0 and 1.5% HSA: 23, 195 and 198 nM (3.3 nM without HSA)” value in data set [9] amounted to 198 nM. Also, the “potency EC50 of ERK phosphorylation in Ba/F3 cells overexpressing human KLB and FGFR1c, 0% HSA” value in data set [3] amounted to 4.1 nM. Moreover, the “potency EC50 of ERK phosphorylation in Ba/F3 cells overexpressing human KLB and FGFR3c (chimera with the kinase domain of FGFR1c), 0% HSA” value in data set [4] came to 11.9 nM. For the same molecule, the “mean EC50 of ERK phosphorylation in HEK293 cells overexpressing human KLB (species qualification)” value in [5] amounted to 2.8 nM. In addition, the “mean EC50 of ERK phosphorylation in HEK293 cells overexpressing mouse KLB” value in [6] came out at 0.1 nM. Further, in data set [7], the “mean EC50 of ERK phosphorylation in HEK293 cells overexpressing cynomolgus monkey KLB” value is 1.4 nM. Also, the binding result in data set [10] is on record as “binds”. In data set [2], this molecule had a pIC50 of 6.13 ± 0.8.

B5: FGF21 analog 18 (-1A, 121Q, 168L, 181C; C18 fatty diacid on 181C) (ligand, human)
chain: AHPIPDSSPLLQFGGQVRQRYLYTDDAQQTEAHLEIREDGTVGGAADQSPESLLQLKALKPGVIQILGVKTSRFLCQRPDGALYGSLHFDPEACSFRELLLEDGYNVYQSEAHGLPLHLPGQKSPHRDPAPRGPARFLPLPGLPPALPEPPGILAPQPPDVGSSDPLSLVGPSQGRSPSYAC
modifications: C18 diacid gGlu-OEG-OEG-C2DA-Ac side chain on Cys181
notes: single amino acid N-terminal extension (-1A), giving the N-terminus AHPIP; human FGF21, mature 181-residue hormone; numbers count on: the mature protein; source: E. coli BL21 (DE3)-derived strain, inclusion bodies, purified; side chain conjugated to the Cys, purified by anion exchange (MonoQ)
In the case of B5, the “potency (EC50) of ERK phosphorylation in HEK293 cells transfected with human KLB, without HSA” value in data set [1] stood at 39 nM. For the same molecule, the negative-log IC50 (pIC50) in data set [2] was determined as 5.72 ± 0.02.
